Data set [1] deals with the molecule itself. The data set is described as follows: non-reducing SDS-PAGE and immunoblot; V5-tagged proteins from conditioned media of transfected COS7 cells, collected on Talon resin, boiled in SDS sample buffer without DTT; 7% SDS-polyacrylamide gels; V5 antibody blot. On the technique in general: A western blot detects proteins with antibodies after separation by electrophoresis.

Data set [2] deals with the molecule itself. Put plainly: AUC; sedimentation equilibrium; HsTSP1cc 50 uM in PBS, 20 °C, 20,000-50,000 rpm; fitted to a single, ideal species model.

Ends that are not written are not given here.

B1: human TSP1.V5 (thrombospondin-1 with V5 tag) (natural protein)
chain: not shown
notes: human thrombospondin-1 (TSP1); calculated monomer molecular weight of TSP1.V5 132.3 kDa
Usually stoichiometry N stands for a count of units in the complex or per binding partner. For the protein B1, the “stoichiometry N” value in data set [1] was 3.

B2: HsTSP1cc, synthetic peptide of the trimerizing coiled-coil domain of human TSP1 (residues 275-314 of TSP1) (peptide)
peptide: Ac-GDELSSMVLELRGLRTIVTTLQDSIRKVTEENKELANELRRGW
notes: added residue before the TSP1 stretch; human thrombospondin-1 (TSP1), coiled-coil domain, residues 275-314; added residues after the TSP1 stretch (the Trp is used to measure concentration at 280 nm); 43-mer; Made on Rink amide resin, so the C-terminus is probably an amide (surmised); source: synthetic peptide (Fmoc solid phase on Rink amide resin), purified by RP-HPLC
Regarding B2, the “stoichiometry N” value in data set [2] turned out to be 2.96 x monomer mass.

These data come from PMC6079037, “Hydra Mesoglea Proteome Identifies Thrombospondin as a Conserved Component Active in Head Organizer Restriction” (Scientific Reports, 2018).
